# Reference: US20050003400A1 (Amgen, published 2005)
# B1: recombinant mouse OPG [22-194]-Fc fusion protein (Fc fusion, UniProt O08712 22-194, looked up)
# chain: ETLPPKYLHYDPETGHQLLCDKCAPGTYLKQHCTVRRKTLCVPCPDHSYTDSWHTSDECVYCSPVCKELQSVKQECNRTHNRVCECEEGRYLEIEFCLKHRSCPPGSGVVQAGTPERNTVCKKCPDGFFSGETSSKAPCIKHTNCSTFGLLLIQKGNATHDNVCSGNREATQK
# notes: also called OPG-Fc; not shown: Fc domain, detected with anti-human IgG
# B2: recombinant human OPG [22-201]-Fc fusion protein (Fc fusion, UniProt O00300 22-201, looked up)
# chain: ETFPPKYLHYDEETSHQLLCDKCPPGTYLKQHCTAKWKTVCAPCPDHYYTDSWHTSDECLYCSPVCKELQYVKQECNRTHNRVCECKEGRYLEIEFCLKHRSCPPGFGVVQAGTPERNTVCKRCPDGFFSNETSSKAPCRKHTNCSVFGLLLTQKGNATHDNICSGNSESTQKCGIDVTL
# notes: construct described in U.S. Ser. No. 08/706,945; also called OPG-Fc; OPG Fc fusion protein; not shown: human IgG1 Fc domain
# B3: murine OPG binding protein (full length, 316 aa, encoded by clone 32D-F3), on the cell surface (ligand)
# chain: MRRASRDYGKYLRSSEEMGSGPGVPHEGPLHPAPSAPAPAPPPAASRSMFLALLGLGLGQVVCSIALFLYFRAQMDPNRISEDSTHCFYRILRLHENAGLQDSTLESEDTLPDSCRRMKQAFQGAVQKELQHIVGPQRFSGAPAMMEGSWLDVAQRGKPEAQPFAHLTINAASIPSGSHKVTLSSWYHDRGWAKISNMTLSNGKLRVNQDGFYYLYANICFRHHETSGSVPTDYLQLMVYVVKTSIKIPSSHNLMKGGSTKNWSGNSEFHFYSINVGGFFKLRAGEEISIQVSNPSLLDPDQDATYFGAFKVQDID
# notes: Type II transmembrane protein; also called OPGbp; OPG-bp
# B4: chimeric ATAR extracellular domain-Fc fusion protein (Fc fusion, UniProt Q92956 39-202, looked up)
# chain: LPSCKEDEYPVGSECCPKCSPGYRVKEACGELTGTVCEPCPPGTYIAHLNGLSKCLQCQMCDPAMGLRASRNCSRTENAVCGCSPGHFCIVQDGDHCAACRAYATSSPGQRVQKGGTESQDTLCQNCPPGTFSPNGTLEECQHQTKCSWLVTKAGAGTSSSHWV
# notes: extracellular domain; also called sATAR-Fc; ATAR-Fc fusion protein; not shown: human IgG1 Fc domain
# How the values were obtained:
# [1] = target: B3; assay: staining of 32D cells with 5 ug/ml OPG-Fc and PE anti-human IgG, FACS
# purified human IgG1 Fc = target: T1, purified human IgG1 Fc (human, UniProt P01857-1 104-330 = IgG part, limits assumed); assay: staining of 32D cells, FACS
# T1 construct: domain: Fc
# Method: Cell lines that grew as adherent cultures in vitro were treated using the following methods: Cells were plated into 24 well tissue culture plates (Falcon), then allowed to grow to approximately 80% confluency. The growth media was then removed, and the adherent cultures were washed with phosphate buffered saline (PBS) (Gibco) containing 1% fetal calf serum (FCS). […] The OPG-Fc fusion protein solution was discarded, and the cells were washed in PBS-FCS solution as described above. The cultures were then exposed to phycoeyrthrin-conguated goat F(ab′) anti-human IgG secondary antibody (Southern Biotechnology Associates Cat. # 2043-09) diluted into PBS-FCS. After a 30-45 min incubation at 0° C., the solution was discarded, and the cultures were washed as described above. The cells were then analyzed by immunofluorescent microscopy to detect cell lines which express a cell surface OPG binding protein.
# Suspension cell cultures were analyzed in a similar manner with the following modifications: The diluent and wash buffer consisted of calcium- and magnesium-free phosphate buffered saline containing 1% FCS. […] The cells were then analyzed by fluorescence activated cell sorting (FACS) using a Becton Dickinson FACscan.
# [2] = target: B3; assay: immunostaining of COS-7 cells transfected with 32D-F3
# Method: Arrayed pools of 32D cDNA expression library were individually lipofected into COS-7 cultures, then assayed for the acquisition of a cell surface OPG binding protein. To do this, COS-7 cells were plated at a density of 1×10⁶ per ml in six-well tissue culture plates (Costar), then cultured overnight in DMEM (Gibco) containing 10% FCS. Approximately 2 μg of plasmid DNA from each pool was diluted into 0.5 ml of serum-free DMEM, then sterilized by centrifugation through a 0.2 μm Spin-X column (Costar). Simultaneously, 10 μl of Lipofectamine (Life Technologies Cat # 18324-012) was added to a separate tube containing 0.5 ml of serum-free DMEM. The DNA and Lipofectamine solutions were mixed, and allowed to incubate at RT for 30 min. The COS-7 cell cultures were then washed with serum-free DMEM, and the DNA-lipofectamine complexes were exposed to the cultures for 2-5 hr at 37° C. After this period, the media was removed, and replaced with DMEM containing 10% FCS. The cells were then cultured for 48 hr at 37° C.
# Using this approach, a total of approximately 300,000 independent 32D cDNA clones were screened, represented by 300 transfected pools of 1000 clones each. A single well was identified that contained cells which acquired the ability to be specifically decorated by the OPG-Fc fusion protein. […]
Binder,binding result [1],other results
B1,binds,
B2,binds,
B3,,binding result (purified human IgG1 Fc): no binding
B4,,binding result [2]: no binding
